{"source": "paper PMC8826850", "about": "(2022)", "binders": {"B1": {"name": "S2-E12 (antibody, V domains shown)", "VH": "not shown", "VL": "DIVLTQTPGTLSLSPGERATLSCRASQSVSSSYLAWYQQKPGQAPRLLIYGASSRATGIPDRFSGSGSGTDFTLTISRLEPEDFAVYYCQQYVGLTGWTFGQGTKVEIK"}}, "molecular_target": "SARS-CoV-2 HexaPro spike protein, wild type (SARS-CoV-2 wild type (GenBank …, UniProt A0A679G9E9, F817 to proline | A892 to proline | A899 to proline | A942 to proline | K986 to …))", "assay": "BLI", "conditions": "both partners purified", "data": [{"binder": "B1", "values": [{"measurement": "binding result", "result": "binds"}]}]}
